Data taken from patent US20160166634A1 (Novartis, published 2016).

Molecular target: human APJ receptor (hAPJ) (human) (UniProt P35414)
Assay: cell-based or functional assay

Sequence of human APJ receptor (hAPJ) (human) (P35414 whole entry): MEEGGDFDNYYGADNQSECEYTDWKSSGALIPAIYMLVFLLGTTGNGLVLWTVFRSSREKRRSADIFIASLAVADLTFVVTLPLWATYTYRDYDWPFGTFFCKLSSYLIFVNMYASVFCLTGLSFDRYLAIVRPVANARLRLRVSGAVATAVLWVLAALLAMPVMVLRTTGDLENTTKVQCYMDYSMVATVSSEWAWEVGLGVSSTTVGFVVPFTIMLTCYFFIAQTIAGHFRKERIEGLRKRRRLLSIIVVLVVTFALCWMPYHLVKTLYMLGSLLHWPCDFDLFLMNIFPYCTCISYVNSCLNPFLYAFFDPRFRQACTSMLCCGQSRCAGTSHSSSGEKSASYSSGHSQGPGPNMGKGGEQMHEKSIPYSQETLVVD

| hAPJ Ca2+ Flux EC50 [nM] | Substance |
| --- | --- |
| 47.2 | Example 1: Albumin-MPA-O2Oc-O2Oc-O2Oc-O2Oc-Q-R-P-R-L-C*-H-F-G-P-Nle-C*-f-OH (from UniProt P02768 25-609) |
| 92.4 | Example 2: Albumin-TPA-O2Oc-O2Oc-O2Oc-O2Oc-Q-R-P-R-L-C*-H-F-G-P-Nle-C*-f-OH (from UniProt P02768 25-609) |
| 52 | Example 3: Albumin-MPA-NHCH2CH2CH2-OCH2CH2OCH2CH2O-CH2CH2CH2NH-C(O)CH2CH2C=O-A-R-P-R-L-S-H-K-G-P-Nle-P-F-OH (from UniProt P02768 25-609) |
